Results taken from US6692962.

Biological target: wild type (51S) wheat eIF2α (alpha subunit of wheat eukaryotic initiation factor 2) (wheat)
Experiment: cell-based or functional assay

“PKR (IPTG-inducible, expressed from recombinant vaccinia virus WR 68K) (from UniProt P19525 2-551) (enzyme)” gave a phosphorylated peIF2α 51S, densitometric analyses of western blots (HeLa cells) of 3.8 fold.
